Experiment in all cases: cell-based or functional assay
In experiment [1] the target is human KDR on cells (human, UniProt P35968 20-1356).
Experiment [2] deals with T1, KDR (human, UniProt P35968 20-1356).
In experiment [3] the target is T1, KDR. This is another data set of the same source.
Experiment [4] addresses T1, KDR. The source holds these as a separate data set.
Experiment [5] deals with T1, KDR. The source holds these as a separate data set.

The values below come from US20100260765A1 (AstraZeneca / MedImmune, published 2010).

Substitutions are numbered along the chain they refer to.

Sequence of human KDR on cells (P35968 20-1356): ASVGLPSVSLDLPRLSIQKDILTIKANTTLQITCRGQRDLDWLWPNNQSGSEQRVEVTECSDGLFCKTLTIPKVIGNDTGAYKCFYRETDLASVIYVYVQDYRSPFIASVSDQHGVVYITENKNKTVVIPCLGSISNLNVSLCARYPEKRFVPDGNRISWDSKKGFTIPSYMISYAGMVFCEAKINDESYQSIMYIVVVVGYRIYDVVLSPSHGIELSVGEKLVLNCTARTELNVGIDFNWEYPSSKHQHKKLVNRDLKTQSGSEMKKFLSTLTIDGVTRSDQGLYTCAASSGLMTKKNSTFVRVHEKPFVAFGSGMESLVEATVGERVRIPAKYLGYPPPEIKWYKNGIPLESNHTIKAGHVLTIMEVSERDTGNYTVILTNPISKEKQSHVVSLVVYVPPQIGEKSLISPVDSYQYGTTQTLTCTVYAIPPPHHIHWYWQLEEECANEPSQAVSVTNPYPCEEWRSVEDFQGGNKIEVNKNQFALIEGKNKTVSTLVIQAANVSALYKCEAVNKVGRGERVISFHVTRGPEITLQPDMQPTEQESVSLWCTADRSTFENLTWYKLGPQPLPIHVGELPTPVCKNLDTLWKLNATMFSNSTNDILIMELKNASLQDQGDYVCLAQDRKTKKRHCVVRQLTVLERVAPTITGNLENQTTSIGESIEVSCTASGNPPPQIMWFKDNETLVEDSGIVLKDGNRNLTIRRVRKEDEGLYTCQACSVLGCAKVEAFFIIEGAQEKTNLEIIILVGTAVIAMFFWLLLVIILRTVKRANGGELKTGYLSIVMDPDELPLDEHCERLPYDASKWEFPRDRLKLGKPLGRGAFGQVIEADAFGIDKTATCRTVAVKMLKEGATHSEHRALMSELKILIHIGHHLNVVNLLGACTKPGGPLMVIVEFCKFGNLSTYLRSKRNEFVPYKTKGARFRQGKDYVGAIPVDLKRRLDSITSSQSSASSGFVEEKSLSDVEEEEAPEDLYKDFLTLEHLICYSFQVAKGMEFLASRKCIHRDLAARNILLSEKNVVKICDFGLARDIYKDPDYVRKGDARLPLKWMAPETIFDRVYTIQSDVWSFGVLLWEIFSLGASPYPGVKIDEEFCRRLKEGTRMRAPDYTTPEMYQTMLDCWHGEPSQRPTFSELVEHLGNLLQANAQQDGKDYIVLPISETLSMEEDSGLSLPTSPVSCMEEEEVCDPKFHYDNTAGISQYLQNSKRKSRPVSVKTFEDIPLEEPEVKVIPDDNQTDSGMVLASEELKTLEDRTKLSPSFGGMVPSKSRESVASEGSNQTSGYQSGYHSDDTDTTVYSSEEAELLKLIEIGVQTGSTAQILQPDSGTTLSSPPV
T1 sequence (P35968 20-1356): as above

B1: 22B8 (antibody, V domains shown)
VH: QLQLQESGPGLVKPSETLSLTCTVSGGSISSRYYYWGWVRQPPGKGLEWIGTIYYSGHTYYNPSLKTRVTISVDTSKNQFSLKLISVTAADTAVYYCATQQLVLYYFDFWGQGTLVTVSS
VL: EIVLTQSPGTLSLSPGERAALSCRASQSISSSYLAWYQQRPGQAPRLLIYGASSRATGIPDRFNGSGSGTDFTLTISRLEPEDFAVYYCQQFGSSITFGQGTRLEIK
As for B1, in experiment [1], the “% Inhibition (Average) of VEGF-C-mediated KDR activity, antibody 1 nM” value (from here on “% Inhibition (Average) … antibody 1 nM”) worked out at 27%; the “% Inhibition (Average) of VEGF-C-mediated KDR activity, antibody 10 nM” value (“% Inhibition (Average) … antibody 10 nM” for short) amounted to 65%; the “% Inhibition (Average) of VEGF-C-mediated KDR activity, antibody 100 nM” value (from here on “% Inhibition (Average) … antibody 100 nM”) is 74%; the “% Inhibition (N = 1) of VEGF-C-mediated KDR activity, antibody 1 nM” value came out at 38%. Also, in experiment [1], the “% Inhibition (N = 1) of VEGF-C-mediated KDR activity, antibody 10 nM” value is 74%; the “% Inhibition (N = 1) of VEGF-C-mediated KDR activity, antibody 100 nM” value was found to be 71%; the “% Inhibition (N = 2) of VEGF-C-mediated KDR activity, antibody 1 nM” value is 17%; the “% Inhibition (N = 2) of VEGF-C-mediated KDR activity, antibody 10 nM” value amounted to 56%. Also, the “% Inhibition (N = 2) of VEGF-C-mediated KDR activity, antibody 100 nM” value in experiment [1] amounted to 77%.

B2: 27A3 (antibody, V domains shown)
VH: B1 VH with Y33S, Y34D, V39I, H58D, T67S, I85S, T99R, F109Y
VL: EIVLTQSPGTLSLSPGERATLSCRASQSVSSSYLAWYQQKPGQAPRLLIYATSNRATGIPDRFSGSGSGTDFTLTISRLEPEDFAVYYCQQHGSSPPLTFGGGTKVEIK
With B2, in experiment [1], the “% Inhibition (Average) … antibody 1 nM” value was found to be 39%; the “% Inhibition (Average) … antibody 10 nM” value is 78%; the “% Inhibition (Average) … antibody 100 nM” value stood at 75%; the “% Inhibition (N = 1) of VEGF-C-mediated KDR activity, antibody 1 nM” value was determined as 40%. In experiment [1], the “% Inhibition (N = 1) of VEGF-C-mediated KDR activity, antibody 10 nM” value was found to be 75%; the “% Inhibition (N = 1) of VEGF-C-mediated KDR activity, antibody 100 nM” value was 73%; the “% Inhibition (N = 2) of VEGF-C-mediated KDR activity, antibody 1 nM” value is 38%; the “% Inhibition (N = 2) of VEGF-C-mediated KDR activity, antibody 10 nM” value came to 80%. Besides, the “% Inhibition (N = 2) of VEGF-C-mediated KDR activity, antibody 100 nM” value in experiment [1] was 77%.

B3: 31E11 (antibody, V domains shown)
VH: QVQLVESGGGLVKPGGSLRLSCAASGFTFSDYYMSWIRQAPGKGLEWVSYISISGSTIYYADSVKGRFTISRDNAKNSLYLQMNSLRAEDTAVYYCARDDFWSGYYFNWFDPWGQGTLVTVSS
VL: DIQMTQSPSSLSASVGDRVTITCRANQTISTFLNWYQQNPGKAPKLLIYAASSLQSGVPSRFSGSGSGTDFTLTISSLQPEDFATYYCQQTYIIPLTFGGGTKVEIK
In the case of B3, in experiment [1], the “% Inhibition (Average) … antibody 1 nM” value is 40%; the “% Inhibition (Average) … antibody 10 nM” value was 83%; the “% Inhibition (Average) … antibody 100 nM” value came out at 84%; the “% Inhibition (N = 1) of VEGF-C-mediated KDR activity, antibody 1 nM” value came out at 47%. Moreover, in experiment [1], the “% Inhibition (N = 1) of VEGF-C-mediated KDR activity, antibody 10 nM” value turned out to be 81%; the “% Inhibition (N = 1) of VEGF-C-mediated KDR activity, antibody 100 nM” value was 84%; the “% Inhibition (N = 2) of VEGF-C-mediated KDR activity, antibody 1 nM” value is 33%; the “% Inhibition (N = 2) of VEGF-C-mediated KDR activity, antibody 10 nM” value is 85%. Further, in experiment [1], the “% Inhibition (N = 2) of VEGF-C-mediated KDR activity, antibody 100 nM” value was determined as 84%.

B4: 21H6 (antibody, V domains shown)
VH: QVQLVESGGGLVKPGGSLRLSCAASGFTFSDYYMSWIRQAPGKGLEWVSYISNSGITIYYADSVKGRFTISRDNAKNSLYLQMNSLRAGDTAVYYCAREEWYSSRWYRNFDYWGQGTLVTVSS
VL: DIQMTQFSSSLSASVGDRVTITCRASQSISRYLNWYQQKPGKAPKLLIYAASSLQSGVPSRFNGSGSGTDFTLTISSLQPEDFATYYCQQSYSAPLTFGGGTKVEIK
Consider B4, for which, in experiment [1], the “% Inhibition (Average) … antibody 1 nM” value came out at 28%; the “% Inhibition (Average) … antibody 10 nM” value is 84%; the “% Inhibition (Average) … antibody 100 nM” value is 94%; the “% Inhibition (N = 1) of VEGF-C-mediated KDR activity, antibody 1 nM” value amounted to 23%. For the same molecule, in experiment [1], the “% Inhibition (N = 1) of VEGF-C-mediated KDR activity, antibody 10 nM” value worked out at 78%; the “% Inhibition (N = 1) of VEGF-C-mediated KDR activity, antibody 100 nM” value was found to be 93%; the “% Inhibition (N = 2) of VEGF-C-mediated KDR activity, antibody 1 nM” value was found to be 34%; the “% Inhibition (N = 2) of VEGF-C-mediated KDR activity, antibody 10 nM” value was found to be 90%. In experiment [1], the “% Inhibition (N = 2) of VEGF-C-mediated KDR activity, antibody 100 nM” value was 95%.

B5: 32F4 (antibody, V domains shown)
VH: QLQLQESGPGLVKPSGTLSLSCTVSGGSISSRSDYWGWIRQPPGKGLEWIGTIYYSGNTFYNPSLKSRVTISVDTSKKQFSLKLSSVTAADTAVYYCARQQLVLYYFDYWGQGTLVTVSS
VL: B2 VL with A25T, A51G, T52A, N54S, I59V, T73S, H92Y
For the molecule B5, in experiment [2], the “Activity at 133 nM (% Inhibition), 1-hour Pre-incubation at 4° C., Average” value worked out at 64%; the “Activity at 133 nM (% Inhibition), 1-hour Pre-incubation at 4° C., N = 1” value was 60%; the “Activity at 133 nM (% Inhibition), 1-hour Pre-incubation at 4° C., N = 2” value is 68%. In addition, in experiment [3], the “Activity at 133 nM (% Inhibition), 24-hour Pre-incubation at 37° C., Average” value was 22%; the “Activity at 133 nM (% Inhibition), 24-hour Pre-incubation at 37° C., N = 1” value came out at 25%; the “Activity at 133 nM (% Inhibition), 24-hour Pre-incubation at 37° C., N = 2” value was 18%. In experiment [4], the “Activity at 133 nM Antibody Concentration (% Survival Inhibition), Average” value is 73%; the “Activity at 133 nM Antibody Concentration (% Survival Inhibition), N = 1” value came to 88%; the “Activity at 133 nM Antibody Concentration (% Survival Inhibition), N = 2” value was 58%. Moreover, in experiment [5], the “% Inhibition of VEGF165-mediated 6-keto Prostaglandin F1α release at 133 nM Antibody Concentration, Average” value came out at 73%; the “% Inhibition of VEGF165-mediated 6-keto Prostaglandin F1α release at 133 nM Antibody Concentration, N = 1” value amounted to 69%; the “% Inhibition of VEGF165-mediated 6-keto Prostaglandin F1α release at 133 nM Antibody Concentration, N = 2” value was 76%.

B6: 32F4 (antibody, V domains shown)
VH: B5 VH
VL: B2 VL with A25T, A51G, T52A, N54S, I59V, T73S, H92Y
As to B6, in experiment [1], the “% Inhibition (Average) … antibody 1 nM” value is 43%; the “% Inhibition (Average) … antibody 10 nM” value came out at 77%; the “% Inhibition (Average) … antibody 100 nM” value amounted to 81%; the “% Inhibition (N = 1) of VEGF-C-mediated KDR activity, antibody 1 nM” value is 55%. Moreover, in experiment [1], the “% Inhibition (N = 1) of VEGF-C-mediated KDR activity, antibody 10 nM” value was 76%; the “% Inhibition (N = 1) of VEGF-C-mediated KDR activity, antibody 100 nM” value turned out to be 75%; the “% Inhibition (N = 2) of VEGF-C-mediated KDR activity, antibody 1 nM” value was determined as 31%; the “% Inhibition (N = 2) of VEGF-C-mediated KDR activity, antibody 10 nM” value is 79%. In addition, in experiment [1], the “% Inhibition (N = 2) of VEGF-C-mediated KDR activity, antibody 100 nM” value was determined as 86%.

B7: 29D4 (antibody, V domains shown)
VH: B5 VH with G16E, S21T, D34N, N58H, F60Y, T70S, K78N, A90T, V94L, D108E
VL: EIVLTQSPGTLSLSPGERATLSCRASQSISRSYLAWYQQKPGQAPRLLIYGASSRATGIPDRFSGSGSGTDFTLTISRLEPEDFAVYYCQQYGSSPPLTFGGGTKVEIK
Take B7: in experiment [1], the “% Inhibition (Average) … antibody 1 nM” value came to 34%; the “% Inhibition (Average) … antibody 10 nM” value was determined as 71%; the “% Inhibition (Average) … antibody 100 nM” value is 76%; the “% Inhibition (N = 1) of VEGF-C-mediated KDR activity, antibody 1 nM” value is 42%. In addition, in experiment [1], the “% Inhibition (N = 1) of VEGF-C-mediated KDR activity, antibody 10 nM” value stood at 71%; the “% Inhibition (N = 1) of VEGF-C-mediated KDR activity, antibody 100 nM” value was found to be 74%; the “% Inhibition (N = 2) of VEGF-C-mediated KDR activity, antibody 1 nM” value was 25%; the “% Inhibition (N = 2) of VEGF-C-mediated KDR activity, antibody 10 nM” value turned out to be 72%. Besides, the “% Inhibition (N = 2) of VEGF-C-mediated KDR activity, antibody 100 nM” value in experiment [1] was 79%.

B8: 33E1 (antibody, V domains shown)
VH: QVQLQESGPGLVKPSQTLSLTCTVSGGSISSGDHYWSWIRQHPGKGLEWIGHIYYSGSTDYNPSLKSRVTISVDTSKNHFSLKLNSVTAADTAVYYCARTNSSSWSDWYFDLWGRGTLVTVSS
VL: DIVMTQSPDSLAVSLGERATINCKSSQSILYSSNNKNYLAWYQRKPGQPPILLIHWASTRESGVPDRFSGSGSRTDFTLTISSLQAEDVAVYYCQQYFITPWTFGQGTKVEIK
Turning to B8, in experiment [1], the “% Inhibition (Average) … antibody 1 nM” value turned out to be 32%; the “% Inhibition (Average) … antibody 10 nM” value came to 69%; the “% Inhibition (Average) … antibody 100 nM” value stood at 79%; the “% Inhibition (N = 1) of VEGF-C-mediated KDR activity, antibody 1 nM” value came out at 29%. Moreover, in experiment [1], the “% Inhibition (N = 1) of VEGF-C-mediated KDR activity, antibody 10 nM” value is 75%; the “% Inhibition (N = 1) of VEGF-C-mediated KDR activity, antibody 100 nM” value came to 83%; the “% Inhibition (N = 2) of VEGF-C-mediated KDR activity, antibody 1 nM” value amounted to 36%; the “% Inhibition (N = 2) of VEGF-C-mediated KDR activity, antibody 10 nM” value came out at 64%. Also, the “% Inhibition (N = 2) of VEGF-C-mediated KDR activity, antibody 100 nM” value in experiment [1] was 75%.

B9: 33B1 (antibody, V domains shown)
VH: EVQLVESGGGLVKPGGSLRLSCAASGFTFSSYTMNWVRQAPGKGLEWVSFIDSRSSYIYYADSVKGRFTISRDNAKNSLYLQMNSLRAEDTAVYYCSKDDWFEELWGQGTLVTVSS
VL: DIQMTQSPSSLSASVGDRVTITCRASQGIRNDLGWYQQKPGKAPKRLIYATSSLQSGVPSRFSGSGSGTEFTLTISSLQPEDFATYYCLHHNSFPWTFGQGTKVEIK
In the case of B9, in experiment [1], the “% Inhibition (Average) … antibody 1 nM” value came out at 49%; the “% Inhibition (Average) … antibody 10 nM” value was 62%; the “% Inhibition (Average) … antibody 100 nM” value is 68%; the “% Inhibition (N = 1) of VEGF-C-mediated KDR activity, antibody 1 nM” value turned out to be 45%. In experiment [1], the “% Inhibition (N = 1) of VEGF-C-mediated KDR activity, antibody 10 nM” value was found to be 61%; the “% Inhibition (N = 1) of VEGF-C-mediated KDR activity, antibody 100 nM” value was found to be 64%; the “% Inhibition (N = 2) of VEGF-C-mediated KDR activity, antibody 1 nM” value worked out at 53%; the “% Inhibition (N = 2) of VEGF-C-mediated KDR activity, antibody 10 nM” value is 62%. Also, the “% Inhibition (N = 2) of VEGF-C-mediated KDR activity, antibody 100 nM” value in experiment [1] was found to be 73%.
